Experimental findings from patent publication US20090123479A1 (published 2009) are described below.

For the assay, the target named is T1, recombinant human IL-23 (human, UniProt Q9NPF7 20-189; P29460 23-328).
T1 construct: also called hIL-23
T1 sequence 1: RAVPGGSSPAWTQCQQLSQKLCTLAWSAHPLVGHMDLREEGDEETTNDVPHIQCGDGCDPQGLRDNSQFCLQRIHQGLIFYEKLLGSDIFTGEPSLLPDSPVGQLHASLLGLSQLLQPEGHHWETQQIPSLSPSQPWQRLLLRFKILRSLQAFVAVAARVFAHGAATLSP
T1 sequence 2: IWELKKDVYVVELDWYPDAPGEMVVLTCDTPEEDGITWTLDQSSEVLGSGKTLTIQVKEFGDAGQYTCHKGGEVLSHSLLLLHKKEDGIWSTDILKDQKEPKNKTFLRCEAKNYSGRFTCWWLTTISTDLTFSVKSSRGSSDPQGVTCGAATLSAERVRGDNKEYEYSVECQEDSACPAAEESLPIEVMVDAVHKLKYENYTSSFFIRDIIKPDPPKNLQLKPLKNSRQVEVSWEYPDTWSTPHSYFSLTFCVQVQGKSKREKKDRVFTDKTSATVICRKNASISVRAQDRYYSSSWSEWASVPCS
Kind of assay: SPR (Biacore T100), tissue culture supernatant antibody captured on anti-human IgG, IL-23 analyte. On the procedure: Biacore analysis was carried out using a capture surface on a CM5 chip. Anti-human IgG (BR-1008-39) was used as the capturing agent. Anti-human IgG was coupled to a CM5 biosensor chip by primary amine coupling. Humanized antibody was captured on this immobilised surface and defined concentrations of IL-23 were passed over this captured surface. An injection of buffer over the captured antibody surface was used for double-referencing. […] T100 Biacore machine was used to generate the data; all runs were carried out at 25° C. using HBS EP. Data was analysed using the software inherent to the machine and fitted to the 1:1 model of binding. Tables 7 and 8 detail the IL-23 binding analysis carried out on the 8C92H6.HC1LC1 chimera and selected humanized variants in two separate experiments. […] The data shown for the humanized variants is representative of a number of runs. The chimeric mAb (8C9H6.HC1LC1) was only run once in each experiment, so data shown for this mAb is from that one run.
A general note: Surface plasmon resonance follows binding to a sensor surface in real time, without labels.

Changes are numbered by the printed parent chain.

B1: A3M4 (antibody, human IgG1, kappa, V domains shown)
VH: QVQLVQSGAEVKKPGSSVKVSCKASGYTFTSYGITWVRQAPGQGLEWMGENYPRSGNTYYNEKFKGRVTITADKSTSTAYMELSSLRSEDTAVYYCARSEFISTVVAPYYYALDYWGQGTLVTVSS
VL: DIVMTQSPDSLAVSLGERATINCKASKKVTIFGSTSALHWYQQKPGQPPKLIYNGAKPESGVPDRFSGSGSGTDFTLTISSLQAEDVAVYYCLQNKEVPYTFGGGTKVEIKR
notes: Full length chains
Usually Kd stands for the constant that tells how readily two partners part at equilibrium. What is called koff is the rate constant with which the complex falls apart. As usually defined, the kon is the rate constant with which the complex forms. In the case of B1, the Kd came to 0.0775 nM, the dissociation rate constant (koff) was 0.000106 s⁻¹ and the kon came out at 1.36e+06 M⁻¹ s⁻¹.

B2: A12.5M3 (antibody, V domains shown)
VH: B1 VH with T30A, S99V
VL: DIVMTQSPDSLAVSLGERATINCKASKKVTIFGSTSALHWYQQKPGQPPKLIYNGAKLESGVPDRFSGSGSGTDFTLTISSLQAEDVAVYYCLQNKEVPYTFGGGTKVEIK
B2: the Kd was determined as 0.0637 nM, the koff stood at 0.000172 s⁻¹ and the kon was 2.7e+06 M⁻¹ s⁻¹.

B3: A11M3 (antibody, V domains shown)
VH: B1 VH with T30A, V93M, S99A
VL: B2 VL
B3: the Kd was 0.0671 nM, the koff was found to be 9.57e-05 s⁻¹ and the kon worked out at 1.43e+06 M⁻¹ s⁻¹.

B4: A11.5M3 (antibody, V domains shown)
VH: B1 VH with T30A, S99A
VL: B2 VL
For B4, the Kd turned out to be 0.0606 nM, the koff is 9.38e-05 s⁻¹ and the kon is 1.55e+06 M⁻¹ s⁻¹.

B5: A9M4 (antibody, V domains shown)
VH: B1 VH with N51D, S99V
VL: B2 VL with L58P
As for B5, the Kd turned out to be 0.0456 nM, the koff is 0.000129 s⁻¹ and the kon was 2.83e+06 M⁻¹ s⁻¹.

B6: A3M5 (antibody, human IgG1, kappa, V domains shown)
VH: B1 VH
VL: B1 VL with T35I, N54D, P58L
notes: Full length chains
As for B6, the Kd was determined as 26.4 nM, the koff came out at 0.0012 s⁻¹ and the kon was 45500 M⁻¹ s⁻¹.

B7: A3M6 (antibody, human IgG1, kappa, V domains shown)
VH: B1 VH
VL: B1 VL with T35I, N54Q, P58L
notes: Full length chains
For B7, the Kd came to 1.23 nM, the koff is 0.0011 s⁻¹ and the kon amounted to 896000 M⁻¹ s⁻¹.

B8: A11M4 (antibody, V domains shown)
VH: B1 VH with T30A, V93M, S99A
VL: B2 VL with L58P
B8: the Kd turned out to be 0.0444 nM, the koff amounted to 9.18e-05 s⁻¹ and the kon worked out at 2.07e+06 M⁻¹ s⁻¹.

B9: A12.5M4 (antibody, V domains shown)
VH: B1 VH with T30A, S99V
VL: B2 VL with L58P
B9: the Kd is 0.0483 nM, the koff amounted to 0.000151 s⁻¹ and the kon stood at 3.12e+06 M⁻¹ s⁻¹.

B10: A10.5M4 (antibody, V domains shown)
VH: B1 VH with T30A
VL: B2 VL with L58P
Regarding B10, the Kd is 0.0416 nM, the koff is 8.64e-05 s⁻¹ and the kon is 2.08e+06 M⁻¹ s⁻¹.

B11: A11.5M4 (antibody, V domains shown)
VH: B1 VH with T30A, S99A
VL: B2 VL with L58P
As to B11, the Kd worked out at 0.0665 nM, the koff turned out to be 9.62e-05 s⁻¹ and the association rate constant (kon) amounted to 1.45e+06 M⁻¹ s⁻¹.

B12: A7M4 (antibody, human IgG1, kappa, V domains shown)
VH: B1 VH with N51D
VL: B1 VL
notes: Full length chains
Take B12: the Kd amounted to 0.0918 nM, the koff worked out at 0.000123 s⁻¹ and the kon worked out at 1.34e+06 M⁻¹ s⁻¹.

B13: A5M4 (antibody, human IgG1, kappa, V domains shown)
VH: B1 VH with S99A
VL: B1 VL
notes: Full length chains
For B13, the Kd came to 0.053 nM, the koff worked out at 0.000101 s⁻¹ and the kon amounted to 1.91e+06 M⁻¹ s⁻¹.

B14: A12M3 (antibody, V domains shown)
VH: B1 VH with T30A, V93M, S99V
VL: B2 VL
On to B14, for which the Kd came to 0.0794 nM, the koff turned out to be 0.000202 s⁻¹ and the kon is 2.54e+06 M⁻¹ s⁻¹.

B15: A10M3 (antibody, human IgG1, kappa, V domains shown)
VH: B1 VH with T30A, V93M
VL: B1 VL with P58L
notes: Full length chains
Take B15: the dissociation constant Kd amounted to 0.106 nM, the koff was found to be 0.000117 s⁻¹ and the kon turned out to be 1.11e+06 M⁻¹ s⁻¹.

B16: A10.5M3 (antibody, V domains shown)
VH: B1 VH with T30A
VL: B2 VL
Turning to B16, the Kd amounted to 0.0962 nM, the dissociation rate constant (koff) stood at 0.000115 s⁻¹ and the kon turned out to be 1.19e+06 M⁻¹ s⁻¹.

B17: A10M4 (antibody, human IgG1, kappa, V domains shown)
VH: B1 VH with T30A, V93M
VL: B1 VL
notes: Full length chains
For the molecule B17, the Kd was determined as 0.0733 nM, the koff was 0.000107 s⁻¹ and the kon is 1.46e+06 M⁻¹ s⁻¹.

B18: A6M4 (antibody, human IgG1, kappa, V domains shown)
VH: B1 VH with S99V
VL: B1 VL
notes: Full length chains
In the case of B18, the Kd was determined as 0.0465 nM, the dissociation rate constant (koff) amounted to 0.000149 s⁻¹ and the kon is 3.22e+06 M⁻¹ s⁻¹.

B19: A12M4 (antibody, V domains shown)
VH: B1 VH with T30A, V93M, S99V
VL: B2 VL with L58P
Turning to B19, the Kd was 0.0553 nM, the dissociation rate constant (koff) is 0.000163 s⁻¹ and the on-rate constant (kon) amounted to 2.94e+06 M⁻¹ s⁻¹.

B20: A8M4 (antibody, V domains shown)
VH: B1 VH with N51D, S99A
VL: B2 VL with L58P
For B20, the Kd came to 0.0462 nM, the koff was determined as 9.58e-05 s⁻¹ and the kon worked out at 2.08e+06 M⁻¹ s⁻¹.
